Measurements from US6406886.

Experiments:
Ran = experiment: cell-based or functional assay
[1] = target: human RhoA (1st to 193 residues) GST fusion protein (UniProt P61586)
[2] = target: human Ha-Ras (1st to 189th residues) (UniProt P01112)
[3] = target: yeast Rsr1 (1st to 272nd residues) (UniProt P13856)
[4] = target: human Rap1A (Glu63) (1st to 184th residues) (UniProt P62834)
Chain of human Rap1A (Glu63) (1st to 184th residues) (P62834 whole entry, looked up): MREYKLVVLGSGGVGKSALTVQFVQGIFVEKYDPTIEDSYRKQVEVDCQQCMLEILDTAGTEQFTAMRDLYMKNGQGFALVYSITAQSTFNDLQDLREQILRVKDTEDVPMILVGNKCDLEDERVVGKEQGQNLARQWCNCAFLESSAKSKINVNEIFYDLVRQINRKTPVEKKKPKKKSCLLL

Chain of fusion protein of human GAP3 (75th to 663rd amino acid residues) and GST (chain, as listed by the source): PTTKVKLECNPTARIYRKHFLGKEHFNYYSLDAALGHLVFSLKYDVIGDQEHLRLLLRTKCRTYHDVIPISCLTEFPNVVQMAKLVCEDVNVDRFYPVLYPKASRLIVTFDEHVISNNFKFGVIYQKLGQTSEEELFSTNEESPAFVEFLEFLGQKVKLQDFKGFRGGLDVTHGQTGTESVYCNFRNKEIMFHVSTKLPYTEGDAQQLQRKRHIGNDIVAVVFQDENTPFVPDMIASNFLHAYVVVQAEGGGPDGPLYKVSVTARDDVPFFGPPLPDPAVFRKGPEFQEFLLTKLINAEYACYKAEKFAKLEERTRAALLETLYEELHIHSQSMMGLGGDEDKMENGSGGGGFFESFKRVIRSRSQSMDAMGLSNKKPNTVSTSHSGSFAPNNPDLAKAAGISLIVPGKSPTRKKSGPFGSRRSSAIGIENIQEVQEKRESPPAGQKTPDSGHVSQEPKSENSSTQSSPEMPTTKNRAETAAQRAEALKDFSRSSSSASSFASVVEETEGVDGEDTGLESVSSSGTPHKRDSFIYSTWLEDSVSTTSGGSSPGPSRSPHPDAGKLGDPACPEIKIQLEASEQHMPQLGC
Chain of human Ha-Ras (1st to 189th residues) (P01112 whole entry, looked up): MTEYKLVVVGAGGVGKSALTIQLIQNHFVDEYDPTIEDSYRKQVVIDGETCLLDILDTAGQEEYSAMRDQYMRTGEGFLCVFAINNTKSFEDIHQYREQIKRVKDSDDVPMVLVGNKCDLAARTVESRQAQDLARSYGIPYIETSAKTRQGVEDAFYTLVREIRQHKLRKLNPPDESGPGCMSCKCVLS
Chain of human RhoA (1st to 193 residues) GST fusion protein (P61586 whole entry, the tested form may be a part): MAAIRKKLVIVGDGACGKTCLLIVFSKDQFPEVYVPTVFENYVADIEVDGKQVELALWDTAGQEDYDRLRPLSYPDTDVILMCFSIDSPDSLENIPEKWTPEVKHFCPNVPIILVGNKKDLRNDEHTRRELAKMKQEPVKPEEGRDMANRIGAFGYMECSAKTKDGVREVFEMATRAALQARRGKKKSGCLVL
Chain of yeast Rsr1 (1st to 272nd residues) (P13856 whole entry): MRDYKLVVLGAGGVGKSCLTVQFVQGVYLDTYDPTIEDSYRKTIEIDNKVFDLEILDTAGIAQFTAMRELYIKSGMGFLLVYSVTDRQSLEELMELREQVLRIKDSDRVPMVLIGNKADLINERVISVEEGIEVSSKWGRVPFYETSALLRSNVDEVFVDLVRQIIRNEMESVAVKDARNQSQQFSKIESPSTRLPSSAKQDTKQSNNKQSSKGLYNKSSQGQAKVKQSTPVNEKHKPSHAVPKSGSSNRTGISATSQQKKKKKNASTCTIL

Substance: NF1-GDR(Ras GAP) (enzyme)
- EC16 (µg/ml), activation of Ran GTPase (Ran): 300 µg/mL

Substance: fusion protein of human GAP3 (75th to 663rd amino acid residues) and GST
- Stimulation (times) of GTPase activity [1]: 0 times
- Stimulation (times) of GTPase activity [2]: 0 times
- Stimulation (times) of GTPase activity [3]: 7 times
- Stimulation (times) of GTPase activity [4]: 10 times

Substance: fusion protein of human GAP3 (75th to 663rd amino acid residues) and GST (from UniProt P47736 75-663) (enzyme)
- EC16 (µg/ml), activation of Ran GTPase (Ran): 130 µg/mL

Substance: p190C(Rho GAP) (enzyme)
- EC16 (µg/ml), activation of Ran GTPase (Ran): 150 µg/mL
